From PMC7595577

Target: biotinylated CD16 (UniProt P08637)
Assay: BLI

B1: QA255.072 IgG (antibody, V domains shown)
VH: QVQLIQSGAEVRKPGSSVKVSCKAVGATFHNYAVSWVRQAPGQGLEWMGGIIPIRGLANQEPRFQGRLTITADESTGAIYMDLSSLRSDDSAVYYCARHYDDTSGFFYGAFDIWGQGTTLIVSS
VL: DIQMTQSPPSLSASVGDRVTISCRASQGIGNSVAWYQQKPGKAPKLLILAASSLRSGVPSRFSGSMSGTDFTLTISGLQPEDVATYYCQKYNSAPWTFGQGTKVEIK
Kd: 4.9 µM
